Source: IntAct's records for PubMed 31653868

B1: Protein PIGBOS1 (Homo sapiens), A0A0B4J2F0 (parent)
chain: MFRRLTFAQLLFATVLGIAGGVYIFQPVFEQYAKDQKELKEKMQLVQESEEKKS
partner: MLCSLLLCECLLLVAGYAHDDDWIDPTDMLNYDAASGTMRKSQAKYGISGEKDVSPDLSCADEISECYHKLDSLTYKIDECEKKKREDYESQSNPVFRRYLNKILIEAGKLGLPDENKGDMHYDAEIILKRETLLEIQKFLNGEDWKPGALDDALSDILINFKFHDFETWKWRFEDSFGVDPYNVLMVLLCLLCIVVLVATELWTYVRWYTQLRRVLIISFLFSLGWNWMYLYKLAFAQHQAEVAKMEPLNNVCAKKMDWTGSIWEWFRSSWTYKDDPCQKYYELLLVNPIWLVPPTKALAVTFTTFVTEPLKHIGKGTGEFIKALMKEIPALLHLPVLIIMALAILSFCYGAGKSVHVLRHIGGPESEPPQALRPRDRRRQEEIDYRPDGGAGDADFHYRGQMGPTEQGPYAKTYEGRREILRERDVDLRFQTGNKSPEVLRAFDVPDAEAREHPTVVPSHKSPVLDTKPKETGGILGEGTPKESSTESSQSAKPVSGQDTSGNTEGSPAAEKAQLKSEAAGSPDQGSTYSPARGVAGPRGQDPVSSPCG

Variants of: B1
Conditions: with clcc1_human CLCC1, Q96S66

| effect of a mutation on the interaction | Variant |
| --- | --- |
| with no effect | MFRRLTFAQLLFATVLGIAGGVYIFQPVFEQYAKDQKELKEKMQLAAASEEKKS |
| with no effect | MFRRLTFAQLLFATVLGIAGGVYIFQPVFEQYAKDQKELAAAMQLVQESEEKKS |
| disrupting interaction strength | MFRRLTFAQLLFATVLGIAGGVYIFQPVFAAAAKDQKELKEKMQLVQESEEKKS |
| decreasing interaction strength | MFRRLTFAQLLFATVLGIAGGVYIFQPVFEQYAAAAKELKEKMQLVQESEEKKS |

Continued, variant first:

| Variant | effect of a mutation on the interaction |
| --- | --- |
| MFRRLTFAQLLFATVLGIAGGVYIFQPVFEQYAKDQKELKEKMQLVQESEEAAA | with no effect |
| MFRRLTFAQLLFATVLGIAGGVYIFQPVFEQYAKDQKELKEKAAAVQESEEKKS | with no effect |
| MFRRLTFAQLLFATVLGIAGGVYIFQPVFEQYAKDQAAAKEKMQLVQESEEKKS | with no effect |
| MFRRLTFAQLLFATVLGIAGGVYIFQPVFEQYAKDQKELKEKMQLVQEAAAKKS | with no effect |
